Data taken from the RNAGym collection of RNA variant scans (doi:10.1073/pnas.2313332121).

B1: TPR t1 (parent)
chain: GACCAAUCUGCCCUCAGAGCUCGAGAACAUCUUCGGAUGCAGAGGAGGCAGGCUUCGGUGGCGCGAUAGCGCCAACGUCCUCAACCUCCAAUGCAUCCCACCACAUGAUGAUGCCUGAAGAGCCUUGGUUUUUUG

Variants of: B1
Assay: polymerase ribozyme fitness, log enrichment relative to wild type (log ratio); higher = more active; in vitro selection for triplet polymerase activity
How it was run: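 Mutant libraries for each subunit of a heterodimeric triplet polymerase ribozyme were made by PCR and then transcribed. Each library underwent one round of in vitro selection in triplicate: annealing with a biotinylated primer, the partner subunit and triplets, frozen incubation at −7 °C, gel excision of extended constructs, streptavidin-bead capture and RT-PCR. Input and output libraries were Illumina-sequenced, and only genotypes with ≥10 input reads and ≥1 read per output were kept. Fitness is the logarithm, base 2, of genotype enrichment over wild-type enrichment, computed from inverse-variance-weighted replicate averages.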

Variant	polymerase ribozyme fitness (log ratio)
GACCAAUCUGCCCUCAGAUCUCGAGAACAUCUUCGGAUGCAGAGGAGGCAGGCUUCGGUGACGCGAUAGCGCCAACGUCCUGAACCUCCAAUGCAUCCCACCACAUGAUGAUGCCUGAAGAGCAUUGGUUUUUUG [G19U G61A C82G C124A]	-2.1
GACCAAUCUGCCCUCAGAGAUCGAGAACAUUUUCGGAUGCAGACGAGGCAGGCUUCGGUGGCGCGAUCGCGCCAACGUCCUCAACCUCCAAUGCAUCCCACCACAUGAUGAUCCCCGAAGAGCCUUGGUUUUUUC [C20A C31U G44C A68C G113C U116C G135C]	-5.66
GACCAAUCUGCCCUCAGAUCUCGAGAACAUCUUCGGAUGCAGAGGAGGCAGGCUUCGGUGGCGCGAUAGCGCCAACGUCCUCAACCACCAAUGCAUCCCACCACAUGAUGAUGCCUGAAGAGCCUUGGUUUUUUG [G19U U87A]	-3.34
GACCAAUCUGCCCUCAGAUCUCGAGAACAUCUUCGGAUGCAGAGGAGGCAGGCUGCGGUGGCGCGAUAGUGCCAACGUCCUCAACCGCCAAUGCCUCCCACCACAUGAUGACGACUGAAGAGCCUUGGUUUUUUG [G19U U55G C70U U87G A95C U112C C114A]	-0.702
GACCAAUCUGCCCUCAGAUCUCGAGAACAUCUUCGGAUGCAGAGGAGGCAGGCUUCGGUGGCGCGAUAGCGCCAACGUCAUCAACCUCCAAUGCAUCCCACCACAUGAUGAUACCUGAAGAGCCUUGGUUUUUUG [G19U C80A G113A]	-5
GACCAAUCUGCCCUCAGAUCUCGAGAACAUCUUCGGAUGCAGAGGAGGCAGGCUUCGGUGGCGCGAUAGCGGCAACGACCUCAACCUCCAAUGCAUCCCACCACAUGAUGAUGCCUGAAGAGCCUUGGUUUUUUG [G19U C72G U78A]	-5.06
GACCAAUCUGCCCUCAGAGAUCGAGAACAUCUUCGGAUGCAGAGGAGGCAGGCUUCGGUGGCGCGAUAGCGCCAACGUCCUCAACCUCCAAUGCGUCCCACCACAUGAUGAAGCCUGAAUAGCCUUGGUUUUUUG [C20A A95G U112A G120U]	-1.91
GACCAAUCUGCCCUCAGAUCUCGAGAACAUCUUCGGAUGCAGAGGAGGCAGGCUUCGGUGGCGCGAUAGCGCCAACGUUCUUAACCUCCAAUGCCUCCCAACACAUGAUGAUGCCUGAAGAGCCUUGGUUUUUUG [G19U C79U C82U A95C C101A]	-4.63
GACCAAUCUGCCCUCAGAUCUCGAGAACAUCUUCGGAUGCAGAGGAGGCAGGCUUUGGUGGCGCGAUAGCGCCAACGUCCUCAACCUCGAAUGCAUCCCACCACAUGAUGAUGCCUGAAGAGCCUUGGUUUUUUG [G19U C56U C89G]	-3.6
GACCAAUCUGCCCUCAGAUCUCGAGAACAUCUUCGGAUGCAGAGGAGGCAGGCUUCGGUGGCGCGAUAGCGCCAACGUCCUCAACCUCCAAUGCAUCCCACCACAUGAUGAUGCCUGAAUAGCCUUGGUUUUUUG [G19U G120U]	-2.46
GACCAAUCUGCCCUCAGAUCUCGAGAACAUCUUCGGAUGCAGAGGAGGCAGGCUUCGGUGGCGCGAUAGCGCCAACGUCCUCAACCUCCAAUGCAUCCCACCACAUGAUAAUGCCUGAAGAGCCUUGGUUUUUUG [G19U G110A]	-4.35
GACCAAUCUGCCCUCAGAGAUCGAGAACAUCUUCGGAUGCAGAGGAGGCAGGCUUAGGUGGCGCGAUAGCGCCAACGUCCUCAACCUCCAAUGCAUCCCACCACAUGAUGAUGCCUGAAGAGCCUUGGUUUUUUG [C20A C56A]	-2.5
GACCAAUCUGCCCUCAGAGAUCGAGAACAUCUUCGGAUGCAGAGGAGGCAGGCUUUGGUGGCGCGAUAGCGCCAACGUCCUCAACCUCCAAUGCAUCCCACCACAUGAUGAUGCCUGAAGAGCCUUGGUUUUUUG [C20A C56U]	-2.54
GACCAAUCUGCCCUCAGAGAUCGAGAACAUCUUCGGAUGCAGAGGAGGCAGGCUUGGGUGGCGCGAUAGCGCCAACGUCCUCAACCUCCAAUGCAUCCCACCACAUGAUGAUGCCUGAAGAGCCUUGGUUUUUUG [C20A C56G]	-3.63
GACCAAUCUGCCCUCAGAUCUCCAGAGCAUCUUCGGAUGCCGAGGUCGCAGGCUUCGGUGGCGCGAUAGUGCCAACGUCCUCAACCUCCAAUGCAUCCCACCACAUGAUGAUGCUUGAAGAGCCUUGGUUUUUUA [G19U G23C A27G A41C A46U G47C C70U C115U G135A]	-5.42
GACCAAUCUGCCCUCAGAUCUCGAGAACAUCUUCGGAUGCAGAGGAGGCAGGGUUCGGUGGCGCGAUAGCGCAAACGUCCUCAACCUCCAAUGCAUCCCACCACAUGAUGAAGCCUGAAGAGCCUUGGUUUUUUA [G19U C53G C73A U112A G135A]	-0.754
GACCAAUCUGCCCUCAGAGAUCGAGAACAUCUUCGGAUGCAGAGGAGGCUGGCUUCGGUGGCGCGAUAGCGCCAACGUCCUCAACCUCCAAUGCAUCCCACCACAUGAUGAUGCCUGAAGAGCCUCGGUUUUUUG [C20A A50U U126C]	-4.92
GACCAAUCUGCCCUCAGAUCUCGAGAACAUCUUCGGAUGCAGAGGAGGCAGGCUUCGGAGGCGCGAUAGCGCCAACGUCCUCAACCUCCAAUGCAUCCCACCACAUGAUGAUGCCUGAAGAGCCUUGGUUUUUUG [G19U U59A]	-3.3
GACCAAUCUGCCCUCAGAGAUCGAGAACAUCUUCGGAUGCAGAGGAGGCAGGCUUCGGUGGCGCGAUAGCGCCAACGUCCUCAACCUCCACUGCAUCCCACCACAUGAUGAUGCCUGAAGAGCCUUGGUUUUUUG [C20A A91C]	-3.55
GACCAAUCUGCCCUCAGAUCUCGAAAACAUCUUCGGAUGCAGAGGAGGCAGGUUUCGGUGGCGGGAUAGCGCCAACGUCCUCAACCUCCAAUGCAUCCCACCACAUCAUGAUGGCUGAAGAGCCUUGGUUUUUUG [G19U G25A C53U C64G G107C C114G]	-8.12
GACCAAUCUGCCCUCAGAGAUCGAGAACAUCUUCGGAUGCAGAGGAGGGAGGCUUCGGUGGCGCGAUAGCGCCAACGUCCUCAACCUCCAAUACAUCCCACCACAUGAUGAUGCCUGAAGAGCCUUGGUUUUUUG [C20A C49G G93A]	-3.77
